# Assay: label from the status in PepcDB records
row,Sequence,protein production
1,MIEKKRIEIFPKHMGFFPYMWFVYLLFPIYHLAQASGWKLVIGSGMLIIFIVTYRQLYFVQRTFVFWACIQMVLIFLFALFYNPFMIFFGFFTASAMGFAPNKKVFRVLLCSLVIMLGAFLFVNMNQLTTTSLVNIVPMFILMILTPFGMRNFNQKKMLRNQLDQANEQIKDLVKREERQRIARDLHDTLGHTLSLITLKSQLVEKLIVKNPERASAEAKEITQTSRTALKQLRELISDMRMITVEEELEQIKAILQAANIELEVRQEARSSSLSPIEQNIVGMCLREAVTNVVKHSKATRCAVSVLESQGELILKVEDNGIGLTDQNHDGNGIRGMKERIALIDGFVELGTINPGTLLTVKVPVVIRTGKDEVRA,failed
2,MKIAILCASGKVGKEISKEALKRNLEPVCFVRNSSKMNEFLPQAKIVQRDLFELDSKDLIDFDIIIDAFGEWENLSLHKKHIECLSVILQGSKAKLFVVGGAGSLYMDENHTTRLMDMPDFPKEYLDIAKASAEVLEFLRNEKGFKWVYVSPSAIFSPDLPKSNHYKIIGEKFEVNANNESKISYSDYASAMIDIVLNSCYENTRIGVISL,failed
3,MHEKTKFRLHSHDVPYGSGSGQQSVTGFPGVVDSNSYWIVKPVPGTTEKQGDAVKSGATIRLQHMKTRKWLHSHLHASPISGNLEVSCFGDDTNSDTGDHWKLIIEGSGKTWKQDQRVRLQHIDTSGYLHSHDKKYQRIAGGQQEVCGIREKKADNIWLAAEGVYLPLNESSK,not failed
4,MAAPSVPTPLYGHVGRGAFSDVYEPAEDTFLLLDALEAAAAELAGVELCLEVGAGSGVVSAFLASMIGPQALYMCTDINPKAAACTLETARCNRVHLQPVITDLVQGLLPRLKGKVDLLVFNPPYVVTPPEEVGSHGIEAAWAGGRNGREVMDRFFPLASQLLSPRGLFYLVTIKENNPVLPRSYGNAANVPELGSGQLGENLLAFKSNIGGLSKGKLYH,failed
5,MEQNNIKEQLISFFNQACSTHQERLDFICSTRESDTFSSVDVPLEPIKNIIEITKDENQQIEITKIAVNNIKTLSSVGATGQYMASFFSTNSEPAIIFCVIYFLYHFGFLKDNNKKQIIKKAYETIADNIADYLNEN,not failed
6,MIMRKFASRVKDIQLSEIRKIFEVADEDTINLGIGEPDFSVPDHVREAVKDAVDEGLTHYTSNMGMEELREAIADKLKSENRVHAEPESIIVTVGASEAIFMCTQALLDIGDHALIPDPGFLSYDACVRLSGAVSIPVPLSMDEGFSMSPERVESLITQDTRVIIMNSPSNPTGSVMGKDDVKGIAEIAEDNDLIIISDEIYEKIIYDGKHYSPAQFTDNALIVNGFSKTYAMTGLRIGYVAGCEDIIEELLKVHQYNTACAPSISQYAALAAIRGPQNCVKDMVDEFRRRRDLMFRSLTDMGLECVLPGGAFYMFPYAGDSEEFTKLSLEAGVAVVPGSAFGNEGKGYIRMSYATSYELIEEAMERLKTVCGV,failed
7,SSVVKSIELVLPEDRIYLAGSSIKGQVILTLNSTLVDPIVKVELVGRGYVEWSEEAGASCDYSRNVICNNKADYVHKTKTFPVEDNWLSAGSHTFDFHFNLPPRLPSTFTSKFGHVFYFVQASCMGREHILAKKRMYLLVQGTSTFHKETPFQNPLFVEAEEKVSYNCCRQGTVCLQIQMERNTFTPGEKVVFTTEINNQTSKCIKTVVFALYAHIQYEGFTPSAERRSRLDSSELLRQEANTPVTRFNTTKVVSTFNLPLLLSVSSSTQDGEIMHTRYELVTTVHLPWSLTSLKAKVPIIITSASVDSAICQLSEDGVLPVNPDHQN,not failed
8,ELSERQRAEQKLLEVNQLQKGIFDVANYMIISTDRRGIISTFNRTAEEILGYTAAELIGQQTPLIFHDQEEMASEAVQLSQQLQQTIRPNSIDMFAIPAIQWGVYEREWTYITKTGDRLPVYVSITALRDDQGKVDGLVGV,failed
9,MFLRTQARFFHATTKKMDFSKMSIVGRIGSEFTEHTSANNNRYLKYSIASQPRRDGQTNWYNITVFNEPQINFLTEYVRKGALVYVEADAANYVFERDDGSKGTTLSLVQKDINLLKNGKKLEDAEGQENAASSE,failed
10,MFQIGEHNMILIYKLTLTKLTEDELKKDFATIPSWATHLDLSNNRLGETSNEELIRVFAKIPGWISHIKLRFNNLGQKNGKDLAKAFAKIPISVTTLDLGSNQLGKKSGEELANAFAGIPTSVTRLILSQNELYKRTGGELATAFAKIPSSVTHLVLVNNGLGEKNGKELATAFANIPSSVTTLDLALNDLSKIKSTELAVIFTKIPTSVTQLDLSHNNLNKKSGKNLAKIFANIPTSVTNLNLSCNELGKKSGKGLAAAFAKIPTSVTDLNIEDNDLDNRTGKELAMAFAHIPAFVNTLRLGDNNLGNKSGEELAEIFAKIPLSVTSLDLRYNELGKRNGKELAIAFAKIPSSVTNLNLKFNHLGKITGEELAMAFANIPTNVDSLVLANNELGAKSGEELAKIFSKIPASITSLNMGNDWFAVIEKLSQQKMVLSTITHVVIDYSSAQEHSAKLKLLATVFPNLNKVTFMDIHGNNALAGQNPIEEAKWLKLCGIKNSVPSLLSQALFFVAKNKEHRSIQDYPSLLPKELTDSISSLLKC,failed
11,MGINEIIMYIMMFFMLIAAVDRILSQFGGSARFLGKFGKSIEGSGGQFEEGFMAMGALGLAMVGMTALAPVLAHVLGPVIIPVYEMLGANPSMFAGTLLACDMGGFFLAKELAGGDVAAWLYSGLILGSMMGPTIVFSIPVALGIIEPSDRRYLALGVLAGIVTIPIGCIAGGVIAMYSGVQINGQPVEFTFALILMNMIPVLIVAVLVALGLKFIPEKMINGFQIFAKFLVALITIGLAAAVVKFLLGWELIPGLDPIFMAPGDKPGEVMRAIEVIGSISCVLLGAYPMVLLLTRWFEKPLMNVGKLLNVNNIAAAGMVATLANNIPMFGMMKQMDTRGKVINCAFAVSAAFALGDHLGFAAANMNAMIFPMIVGKLIGGVTAIGVAMMLVPKDDAAQVKTEAEAQS,failed
12,MPFGLKSSQSIDDKFMSITQMKNLIHYVKKNDALSHLCIYILIITGSRFKPVQHLRYEDLNFKKSCIHLNDTKNKYSKRNVKVRIKDLEYIQSVINKHPINQNGYIFHNFINFISYSAINDVLVRFCLKYKYDKYTLKSLRHTHCSYLLAKGISIQYISKRLGHADIHTTLKIYSHLIKEFEDSENSLIEKNLNDLFSDLEHHHHHH,not failed
13,MTDVFKDMAFQLKTERLDLNMWEESDAVWLRKLIGERGVEMPTIESVRSSLIEMRKKAIENGISLLTIRRRDEGDFIGYCGLIIGRATLEEPEIAYELFKSAHRKGYATEAASAVLEAAIATGRHRLWSTVGAWNTASFRVLEKLGFHRHHSTYGERGEIVWNVRDL,failed
14,MHALIVVAHHHPRSLTHALAARIAEGVVRAGHSAETADLAAEGFEPRFGLADHAVHRGQASPPADVLAEQARIDRADTLVLVYPIYWWSMPALLKGWIDRVFSNGWAFDYSIGGDLRKKLQRLRVVLVGVGGADAGTFERHGYAGAMRTQIDHGIFDYCGARVVRSELLLESESADPIRHLDQALHIGSQLFAARGAQGAAQAQPLEA,failed
15,MKGVRSMMGNLVITIGRECGSAGRLIGQKLAADLGVKCYDKELLTLAAKNSGLCEELFKTHDEKPTSSFLYSLVMDTYSLGYNTSAYMDMPINHKIFLAQFDTIKKLAEEESCVIVGRCADYALADYPNTVSVFICGDEEDKIRHLMERHNVDEAKAKDIMIKTDKRRASYYNYYSSKRWGSCKSYDMCISSSAVGYDGAVDIIKEFAKKKQEFLKTKNYK,not failed
16,MAITVKGLTNKLTRTQRRIAVVEFIFSLLFFLPKEAEVIQADFLEYDTKERQLNEWQKLIVKAFSENIFSFQKKIEEQQLKNQLEIQTKYNKISGKKIDLLTTAVVLCALSEQKAHNTDKPLLISEALLIMDHYSQGAEKKQTHALLDKLL,not failed
17,MCQSNQIVSHFLSHRNVTNELAEKISKDHYSYKPAETSMSAEELVKHILTSFHLFANVIKEGNASPFQNKQEETETDLNVLAKTYTEKTVAILEQLTEEQLDREIDLTSAFGRKVTGRALLQLAMEHEIHHKGNLFVYVREMGHTELPFYQQRM,not failed
18,MRRSFLKTIGLGVIALFLGLLNPLSAASYPPIKNTKVGLALSSHPLASEIGQKVLEEGGNAIDAAVAIGFALAVVHPAAGNIGGGGFAVIHLANGENVALDFREKAPLKATKNMFLDKQGNVVPKLSEDGYLAAGVPGTVAGMEAMLKKYGTKKLSQLIDPAIKLAENGYAISQRQAETLKEARERFLKYSSSKKYFFKKGHLDYQEGDLFVQKDLAKTLNQIKTLGAKGFYQGQVAELIEKDMKKNGGIITKEDLASYNVKWRKPVVGSYRGYKIISMSPPSSGGTHLIQILNVMENADLSALGYGASKNIHIAAEAMRQAYADRSVYMGDADFVSVPVDKLINKAYAKKIFDTIQPDTVTPSSQIKPGMGQLHEGSNTTHYSVADRWGNAVSVTYTINASYGSAASIDGAGFLLNNEMDDFSIKPGNPNLYGLVGGDANAIEANKRPLSSMSPTIVLKNNKVFLVVGSPGGSRIITTVLQVISNVIDYNMNISEAVSAPRFHMQWLPDELRIEKFGMPADVKDNLTKMGYQIVTKPVMGDVNAIQVLPKTKGSVFYGSTDPRKEF,failed
19,MLAMHGSKEKMMTSYQTIIQNHQPLAPARYTAKRIIKNDAEALQIATELSQSFKEKSIQRDAERVLPFDEIEAFSQSGLWAITVPKRYGGAEVSSLTLAKIIALFSGVDGSIGQIPQNHFYALEVLRNTGTEQQKQRLYQEVLSGLRLGNALAEFKPKNASLKQTQIKAIETGYVINGEKFYCTGSLFAHRIPTLVIDEEGREYLAFVRSDSEGLSLIDNWTGFGQRVTGSGGVKFTQVFVAAEDVIPFDSAFQHPTLVGPFAQLMHAAIEVGIARAAFEEALKRVHAARPWIDSNVDAAAQDPLTIYEIGRVAADVHASEALLKHAALTIDEVRLNTNVETIAKASIAVAKIRAHSTETALKASSKLIELAGSRGSQSVDGLDRFWRNARVHTLHDAARWKYYFIGNYVLNDIFPPRRGTL,failed
20,MLSRRASLAAIAIGLIAAAGAAHAQSPLGIGSAEPSFSLGGPFAPLMQWINVHQQMFYRALTGALKAMREDSWALGSLIGLSFAYGVFHAAGPGHGKAVISSYMIANETQLRRGILISFVSALIQGLMAIGLVGAAWLVLRGTSITMTKATQAMEIASFAMVALFGAWLLVRKLWSLRIRREPVPVFATAGEAPAARTNGMGTGLRFQGKPVFADHDHNGTGDLCTACGKSHAPDPMLLKGKNFSLHEAWSAIIAVGLRPCSGAIIVMSFALLNGLYLGGVLSVLAMSLGTAITVSALAIMAVSAKGLAVRFAGPGSRKAAGISHAIEIAGALFVLIMGLLLLGASLQF,failed
21,MSGYFEILAILTCAVFVVWLFRRLNLPAILAYLVAGMLVGQHGLNLVQDQVDYDHFAELGIVFLLFTLGLEFSLPRLMAMRHLVVSVGSLQVGISLLVFIIAGLFFGLSFSEAFVVGSILALSSTAIVIRQLSETGAMKRKSGQLSVAILLFQDVAVVPLLIIIPMLAMDSQSSMVWALMLAMVKGVVVVALLLLIGKWLLPKVFNIIAQVRTDELFVLTTLLVTLLAAAFTQWFGLSMALGAFLAGMMLSESEYKHQLEADIRPYRDILLGLFFITVGMKLDVSLLISSPFSLLGLMLCFMLVKIMVIKILAVKAGESSKDAWASGLMLAQMGEFGFVLIALANQSQILPLDVASMLLGAGVISMAITPFMINNARSWALFLSQEKSPESLDLSQLPENKVLENHVVICGFGRVGQTVSRFLKQDEIDFVAIDVDPLRTQKAREAGEKVLFGSSRQTEVLNAAHLSEAKLVVIAFGDDKQSLEVIQKVRSMNEKVPILVRTRNDDQLDALQAAGANEVVPESLEGSLMLVSQVLSLTGVPFSRIMRRVQRERKNHYNHLHGFFQGEHTDMSPQAIDRIEFAHAILINDNSFSCGKSIESLNLGKMRVNVVALRRGDIECESPGKDTVLQAQDTLIIRGKPRGVEKADHYVQEGK,failed

# Reference: a protein production outcome set (Wang et al. 2014)
